Results taken from patent publication US20260167693A1 (ANGELES THERAPEUTICS, published 2026).

T1: human CD19 (human, UniProt P15391 20-556)
T1 sequence (looked up): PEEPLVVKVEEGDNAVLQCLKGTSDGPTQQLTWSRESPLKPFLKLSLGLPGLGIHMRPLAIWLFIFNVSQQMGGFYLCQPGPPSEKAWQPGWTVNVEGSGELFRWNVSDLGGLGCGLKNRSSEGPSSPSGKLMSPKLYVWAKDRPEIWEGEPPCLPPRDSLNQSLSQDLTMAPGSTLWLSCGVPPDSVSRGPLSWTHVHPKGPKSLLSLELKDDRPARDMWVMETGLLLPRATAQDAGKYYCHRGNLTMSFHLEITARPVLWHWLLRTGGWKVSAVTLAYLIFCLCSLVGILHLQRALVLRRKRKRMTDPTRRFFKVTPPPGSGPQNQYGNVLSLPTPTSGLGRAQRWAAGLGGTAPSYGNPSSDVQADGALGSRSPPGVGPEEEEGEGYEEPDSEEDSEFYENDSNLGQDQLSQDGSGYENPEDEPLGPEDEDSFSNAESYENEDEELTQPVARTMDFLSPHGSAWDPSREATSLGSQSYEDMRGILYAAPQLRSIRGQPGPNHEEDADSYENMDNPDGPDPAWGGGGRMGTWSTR

T2: CD19-ECD-GGSG-NLuc-AcV5 (human)
T2 construct: also called CD19-GGSG-NLuc-AcV5; Flag-CD19-GGSG-NLuc-AcV5
T2 chain: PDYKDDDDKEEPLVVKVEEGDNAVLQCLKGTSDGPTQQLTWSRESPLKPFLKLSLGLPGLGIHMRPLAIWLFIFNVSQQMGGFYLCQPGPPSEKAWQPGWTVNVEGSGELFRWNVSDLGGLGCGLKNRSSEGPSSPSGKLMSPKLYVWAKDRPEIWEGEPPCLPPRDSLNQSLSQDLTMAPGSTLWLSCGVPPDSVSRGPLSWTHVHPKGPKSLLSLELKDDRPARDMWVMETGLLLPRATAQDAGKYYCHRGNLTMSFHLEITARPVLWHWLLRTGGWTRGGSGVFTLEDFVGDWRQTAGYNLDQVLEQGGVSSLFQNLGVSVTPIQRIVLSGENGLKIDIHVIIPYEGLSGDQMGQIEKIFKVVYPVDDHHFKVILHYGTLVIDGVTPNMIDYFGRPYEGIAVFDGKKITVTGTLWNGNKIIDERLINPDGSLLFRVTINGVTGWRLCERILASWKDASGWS


Key:
human CD19 = molecular target: T1, human CD19; experiment: cell-based or functional assay
CD19-ECD-GGSG-NLuc-AcV5 = molecular target: T2, CD19-ECD-GGSG-NLuc-AcV5; experiment: NLuc binding assay, SIR on Jurkat-NFAT-GFP cells

NFAT-GFP (%) after overnight co-culture with RAJI cells (human CD19) | CD19-GGSG-NLuc (RLU) (CD19-ECD-GGSG-NLuc-AcV5) | Binder
52.4% |  | CD8SP-CD19-hu-mROO5-vL-[hTCRa-CSDVP]-F-F2A-SP-CD19-hu-mROO5-vH-[hTCRb-KACIAH]-F-P2A-PAC (other) TCR alpha: DIQMTQSPSSLSASVGDRVTITCKASDHINNWLAWYQQKPGQAPKLLIYGATTLETGVPSRFSGSGSGTDYTLTISSLQPEDFATYYCQQSWNTPWTFGQGTKLEIKRIQNPDPAVYQLRDSKSSDKSVCLFTDFDSQTNVSQSKDSDVYITDKCVLDMRSMDFKSNSAVAWSNKSDFACANAFNNSIIPEDTFFPSSDVPCDVKLVEKSFETDTNLNFQNLSVIGFRILLLKVAGFNLLMTLRLWSS TCR beta: QVQLQQPGAELVKPGASVKMSCKASGYAFSSYWINWMKQKPGQGLEWIGQIYPGDGDTNYNGKFKGRATLTADTSSSTAYMQLSSLTSEDSAVYFCARSITTVVGCAMDYWGQGTSVTVSSEDLKNVFPPEVAVFEPSKAEIAHTQKATLVCLATGFYPDHVELSWWVNGKEVHSGVCTDPQPLKEQPALNDSRYCLSSRLRVSATFWQNPRNHFRCQVQFYGLSENDEWTQDRAKPVTQIVSAEAWGRADCGITSASYHQGVLSATILYEILLGKATLYAVLVSALVLMAMVKRKDSRG
 | 53700 RLU | CD8SP-FMC63-vL-PG4SP-v2-[hTCRb-KACIAH]-F-P2A-SP-FMC63-vH-PG4SP-[hTCRa-CSDVP]-F-F2A-PAC (other, Polyprotein PRT 12433; also called 040617-A09) TCR beta: DIQMTQTTSSLSASLGDRVTISCRASQDISKYLNWYQQKPDGTVKLLIYHTSRLHSGVPSRFSGSGSGTDYSLTISNLEQEDIATYFCQQGNTLPYTFGGGTKLEITPGGGGSPEDLKNVFPPEVAVFEPSKAEIAHTQKATLVCLATGFYPDHVELSWWVNGKEVHSGVCTDPQPLKEQPALNDSRYCLSSRLRVSATFWQNPRNHFRCQVQFYGLSENDEWTQDRAKPVTQIVSAEAWGRADCGITSASYHQGVLSATILYEILLGKATLYAVLVSALVLMAMVKRKDSRG TCR alpha: EVKLQESGPGLVAPSQSLSVTCTVSGVSLPDYGVSWIRQPPRKGLEWLGVIWGSETTYYNSALKSRLTIIKDNSKSQVFLKMNSLQTDDTAIYYCAKHYYYGGSYAMDYWGQGTSVTVSSPGGGGSPIQNPDPAVYQLRDSKSSDKSVCLFTDFDSQTNVSQSKDSDVYITDKCVLDMRSMDFKSNSAVAWSNKSDFACANAFNNSIIPEDTFFPSSDVPCDVKLVEKSFETDTNLNFQNLSVIGFRILLLKVAGFNLLMTLRLWSS
 | 35700 RLU | CD8SP-FMC63-vL-E-Coil-[hTCRb-KACIAH]-F-P2A-SP-FMC63-vH-K-coil-[hTCRa-CSDVP]-F-F2A-PAC (other, Polyprotein PRT 12434; also called 040617-B09) TCR beta: DIQMTQTTSSLSASLGDRVTISCRASQDISKYLNWYQQKPDGTVKLLIYHTSRLHSGVPSRFSGSGSGTDYSLTISNLEQEDIATYFCQQGNTLPYTFGGGTKLEITEVAALEREDLKNVFPPEVAVFEPSKAEIAHTQKATLVCLATGFYPDHVELSWWVNGKEVHSGVCTDPQPLKEQPALNDSRYCLSSRLRVSATFWQNPRNHFRCQVQFYGLSENDEWTQDRAKPVTQIVSAEAWGRADCGITSASYHQGVLSATILYEILLGKATLYAVLVSALVLMAMVKRKDSRG TCR alpha: EVKLQESGPGLVAPSQSLSVTCTVSGVSLPDYGVSWIRQPPRKGLEWLGVIWGSETTYYNSALKSRLTIIKDNSKSQVFLKMNSLQTDDTAIYYCAKHYYYGGSYAMDYWGQGTSVTVSSRVAALKEIQNPDPAVYQLRDSKSSDKSVCLFTDFDSQTNVSQSKDSDVYITDKCVLDMRSMDFKSNSAVAWSNKSDFACANAFNNSIIPEDTFFPSSDVPCDVKLVEKSFETDTNLNFQNLSVIGFRILLLKVAGFNLLMTLRLWSS
71.8% |  | CD8SP-CD19-hu-mROO5-vL-[hTCRb-KACIAH]-F-P2A-SP-CD19-hu-mROO5-vH-[hTCRa-CSDVP]-F-F2A-PAC (other) TCR beta: DIQMTQSPSSLSASVGDRVTITCKASDHINNWLAWYQQKPGQAPKLLIYGATTLETGVPSRFSGSGSGTDYTLTISSLQPEDFATYYCQQSWNTPWTFGQGTKLEIKREDLKNVFPPEVAVFEPSKAEIAHTQKATLVCLATGFYPDHVELSWWVNGKEVHSGVCTDPQPLKEQPALNDSRYCLSSRLRVSATFWQNPRNHFRCQVQFYGLSENDEWTQDRAKPVTQIVSAEAWGRADCGITSASYHQGVLSATILYEILLGKATLYAVLVSALVLMAMVKRKDSRG TCR alpha: QVQLQQPGAELVKPGASVKMSCKASGYAFSSYWINWMKQKPGQGLEWIGQIYPGDGDTNYNGKFKGRATLTADTSSSTAYMQLSSLTSEDSAVYFCARSITTVVGCAMDYWGQGTSVTVSSIQNPDPAVYQLRDSKSSDKSVCLFTDFDSQTNVSQSKDSDVYITDKCVLDMRSMDFKSNSAVAWSNKSDFACANAFNNSIIPEDTFFPSSDVPCDVKLVEKSFETDTNLNFQNLSVIGFRILLLKVAGFNLLMTLRLWSS
 | 68500 RLU | CD8SP-FMC63-vL-EAAAK-[hTCRb-KACIAH]-F-P2A-SP-FMC63-vH-EAAAK-v2-[hTCRa-CSDVP]-F-F2A-PAC (other, Polyprotein PRT 12435; also called 040617-C09) TCR beta: DIQMTQTTSSLSASLGDRVTISCRASQDISKYLNWYQQKPDGTVKLLIYHTSRLHSGVPSRFSGSGSGTDYSLTISNLEQEDIATYFCQQGNTLPYTFGGGTKLEITEAAAKEDLKNVFPPEVAVFEPSKAEIAHTQKATLVCLATGFYPDHVELSWWVNGKEVHSGVCTDPQPLKEQPALNDSRYCLSSRLRVSATFWQNPRNHFRCQVQFYGLSENDEWTQDRAKPVTQIVSAEAWGRADCGITSASYHQGVLSATILYEILLGKATLYAVLVSALVLMAMVKRKDSRG TCR alpha: EVKLQESGPGLVAPSQSLSVTCTVSGVSLPDYGVSWIRQPPRKGLEWLGVIWGSETTYYNSALKSRLTIIKDNSKSQVFLKMNSLQTDDTAIYYCAKHYYYGGSYAMDYWGQGTSVTVSSEAAAKIQNPDPAVYQLRDSKSSDKSVCLFTDFDSQTNVSQSKDSDVYITDKCVLDMRSMDFKSNSAVAWSNKSDFACANAFNNSIIPEDTFFPSSDVPCDVKLVEKSFETDTNLNFQNLSVIGFRILLLKVAGFNLLMTLRLWSS
4.49% |  | CD8SP-CD19Bu12-vL-V5-[hTCRb-WT]-F-P2A-CD19Bu12-vH-Myc-[hTCRa-WT]-F-F2A-PAC (other) TCR beta: EIVLTQSPATLSLSPGERATLSCSASSSVSYMHWYQQKPGQAPRLLIYDTSKLASGIPARFSGSGSGTDFTLTISSLEPEDVAVYYCFQGSVYPFTFGQGTKLEIKRGKPIPNPLLGLDSTGSGEDLKNVFPPEVAVFEPSEAEISHTQKATLVCLATGFYPDHVELSWWVNGKEVHSGVSTDPQPLKEQPALNDSRYCLSSRLRVSATFWQNPRNHFRCQVQFYGLSENDEWTQDRAKPVTQIVSAEAWGRADCGFTSESYQQGVLSATILYEILLGKATLYAVLVSALVLMAMVKRKDSRG TCR alpha: QVQLQESGPGLVKPSQTLSLTCTVSGGSISTSGMGVGWIRQHPGKGLEWIGHIWWDDDKRYNPALKSRVTISVDTSKNQFSLKLSSVTAADTAVYYCARMELWSYYFDYWGQGTLVTVSSEQKLISEEDGSGIQNPDPAVYQLRDSKSSDKSVCLFTDFDSQTNVSQSKDSDVYITDKTVLDMRSMDFKSNSAVAWSNKSDFACANAFNNSIIPEDTFFPSPESSCDVKLVEKSFETDTNLNFQNLSVIGFRILLLKVAGFNLLMTLRLWSS
 | 21300 RLU | CD8SP-FMC63-vL-[hTCRa-CSDVP]-F-F2A-SP-FMC63-vH-[hTCRb-KACIAH]-F-P2A-PAC (other, Polyprotein PRT 12469; also called 022217-F01) TCR alpha: DIQMTQTTSSLSASLGDRVTISCRASQDISKYLNWYQQKPDGTVKLLIYHTSRLHSGVPSRFSGSGSGTDYSLTISNLEQEDIATYFCQQGNTLPYTFGGGTKLEITIQNPDPAVYQLRDSKSSDKSVCLFTDFDSQTNVSQSKDSDVYITDKCVLDMRSMDFKSNSAVAWSNKSDFACANAFNNSIIPEDTFFPSSDVPCDVKLVEKSFETDTNLNFQNLSVIGFRILLLKVAGFNLLMTLRLWSS TCR beta: EVKLQESGPGLVAPSQSLSVTCTVSGVSLPDYGVSWIRQPPRKGLEWLGVIWGSETTYYNSALKSRLTIIKDNSKSQVFLKMNSLQTDDTAIYYCAKHYYYGGSYAMDYWGQGTSVTVSSEDLKNVFPPEVAVFEPSKAEIAHTQKATLVCLATGFYPDHVELSWWVNGKEVHSGVCTDPQPLKEQPALNDSRYCLSSRLRVSATFWQNPRNHFRCQVQFYGLSENDEWTQDRAKPVTQIVSAEAWGRADCGITSASYHQGVLSATILYEILLGKATLYAVLVSALVLMAMVKRKDSRG
